Data set [1] concerns the molecule itself. Nature of the data set: single molecule fluorescence.
Data set [2] concerns the target T1, His6-YPet-mRIPK3_(379-486) (mouse, UniProt Q9QZL0 379-486).
T1 sequence (looked up): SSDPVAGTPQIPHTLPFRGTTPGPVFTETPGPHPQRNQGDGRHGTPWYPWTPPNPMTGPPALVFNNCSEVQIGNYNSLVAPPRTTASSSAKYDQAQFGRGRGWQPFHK
The data set can be described thus: SDS semi-denaturing agarose gel electrophoresis.

Data set [3] concerns the molecule itself. Nature of the data set: solid-state NMR of homomeric fibrils.
Data set [4] concerns the target T2, His6-YPet-hRIPK3_(387–518) (human, UniProt Q9Y572 387-518).
T2 sequence (looked up): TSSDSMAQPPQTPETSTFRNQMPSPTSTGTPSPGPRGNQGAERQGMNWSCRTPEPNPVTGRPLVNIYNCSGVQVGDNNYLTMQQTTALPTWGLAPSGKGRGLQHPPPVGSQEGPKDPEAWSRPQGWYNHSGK
The data set can be described thus: Two-Colour Coincidence Detection spectroscopy.

Data set [5] deals with the molecule itself. Nature of the data set: Thioflavin T fluorescence + negative stain transmission electron microscopy.

Where a chain is given by its changes, count along the chain named.

B1: His6-M45_(1–90)-mCherry, wild type (domain or fragment, murine cytomegalovirus (MCMV), UniProt Q06A28 1-90, looked up)
chain: MDRQPKVYSDPDNGFFFLDVPMPDDGQGGQQTATTAAGGAFGVGGGHSVPYVRIMNGVSGIQIGNHNAMSIASCWSPSYTDRRRRSYPKT
For the molecule B1, the binding result in data set [1] and in data set [2] was “binds” in each case.

B2: M45_(1-90), RHIM-containing N-terminal region of MCMV M45 (viral inhibitor of RIP activation), tag removed (domain or fragment, murine cytomegalovirus (MCMV), UniProt Q06A28 1-90, looked up)
chain: B1 chain
In the case of B2, in data set [3], the binding result is recorded as “binds”.

B3: His6-M45_(1–90)-mCherry, AAAA mutant E (domain or fragment, murine cytomegalovirus (MCMV), UniProt Q06A28 1-90, looked up)
chain: B1 chain with M69A, S70A, I71A
Turning to B3, the binding result in data set [4] is reported as “binds”.

B4: His6-M45_(1–90)-mCherry, AAAA mutant D (domain or fragment, murine cytomegalovirus (MCMV), UniProt Q06A28 1-90, looked up)
chain: B1 chain with N65A, H66A, N67A
In the case of B4, the binding result in data set [4] is given as “binds”.

B5: His6-M45_(1–90)-mCherry, AAAA mutant A (domain or fragment, murine cytomegalovirus (MCMV), UniProt Q06A28 1-90, looked up)
chain: B1 chain with R53A, I54A, M55A, N56A
Regarding B5, the binding result in data set [4] and in data set [5] was “binds” in each case.

B6: His6-M45_(1–90)-mCherry, AAAA mutant B (domain or fragment, murine cytomegalovirus (MCMV), UniProt Q06A28 1-90, looked up)
chain: B1 chain with G57A, V58A, S59A, G60A
Take B6: the binding result in data set [4] and in data set [1] was “binds” throughout.

B7: His6-M45_(1–90)-mCherry, AAAA mutant C (domain or fragment, murine cytomegalovirus (MCMV), UniProt Q06A28 1-90, looked up)
chain: B1 chain with I61A, Q62A, I63A, G64A
As for B7, the binding result in data set [4] was “binds”.

B8: RIPK3_(387-518), RHIM-containing region of human RIPK3, tag removed (domain or fragment, UniProt Q9Y572 387-518, looked up)
chain: T2 sequence (looked up)
Regarding B8, in data set [3], the binding result was “binds”.

The record behind these values is doi:10.1101/2025.03.26.644761 (bioRxiv, 2025).
